Data published in IntAct's records for PubMed 12080061.

B1: 182 kDa tankyrase-1-binding protein (Homo sapiens), Q9C0C2 (parent)
chain: MKVSTLRESSAMASPLPREMEEELVPTGSEPGDTRAKPPVKPKPRALPAKPALPAKPSLLVPVGPRPPRGPLAELPSARKMNMLAGPQPYGGSKRPLPFAPRPAVEASTGGEATQETGKEEAGKEEPPPLTPPARCAAPGGVRKAPAPFRPASERFAATTVEEILAKMEQPRKEVLASPDRLWGSRLTFNHDGSSRYGPRTYGTTTAPRDEDGSTLFRGWSQEGPVKSPAECREEHSKTPEERSLPSDLAFNGDLAKAASSELPADISKPWIPSSPAPSSENGGPASPGLPAEASGSGPGSPHLHPPDKSSPCHSQLLEAQTPEASQASPCPAVTPSAPSAALPDEGSRHTPSPGLPAEGAPEAPRPSSPPPEVLEPHSLDQPPATSPRPLIEVGELLDLTRTFPSGGEEEAKGDAHLRPTSLVQRRFSEGVLQSPSQDQEKLGGSLAALPQGQGSQLALDRPFGAESNWSLSQSFEWTFPTRPSGLGVWRLDSPPPSPITEASEAAEAAEAGNLAVSSREEGVSQQGQGAGSAPSGSGSSWVQGDDPSMSLTQKGDGESQPQFPAVPLEPLPTTEGTPGLPLQQAEERYESQEPLAGQESPLPLATREAALPILEPVLGQEQPAAPDQPCVLFADAPEPGQALPVEEEAVTLARAETTQARTEAQDLCRASPEPPGPESSSRWLDDLLASPPPSGGGARRGAGAELKDTQSPSTCSEGLLGWSQKDLQSEFGITGDPQPSSFSPSSWCQGASQDYGLGGASPRGDPGLGERDWTSKYGQGAGEGSTREWASRCGIGQEEMEASSSQDQSKVSAPGVLTAQDRVVGKPAQLGTQRSQEADVQDWEFRKRDSQGTYSSRDAELQDQEFGKRDSLGTYSSRDVSLGDWEFGKRDSLGAYASQDANEQGQDLGKRDHHGRYSSQDADEQDWEFQKRDVSLGTYGSRAAEPQEQEFGKSAWIRDYSSGGSSRTLDAQDRSFGTRPLSSGFSPEEAQQQDEEFEKKIPSVEDSLGEGSRDAGRPGERGSGGLFSPSTAHVPDGALGQRDQSSWQNSDASQEVGGHQERQQAGAQGPGSADLEDGEMGKRGWVGEFSLSVGPQREAAFSPGQQDWSRDFCIEASERSYQFGIIGNDRVSGAGFSPSSKMEGGHFVPPGKTTAGSVDWTDQLGLRNLEVSSCVGSGGSSEARESAVGQMGWSGGLSLRDMNLTGCLESGGSEEPGGIGVGEKDWTSDVNVKSKDLAEVGEGGGHSQARESGVGQTDWSGVEAGEFLKSRERGVGQADWTPDLGLRNMAPGAVCSPGESKELGVGQMDWGNNLGLRDLEVTCDPDSGGSQGLRGCGVGQMDWTQDLAPQNVELFGAPSEAREHGVGGVSQCPEPGLRHNGSLSPGLEARDPLEARELGVGETSGPETQGEDYSSSSLEPHPADPGMETGEALSFGASPGRCPARPPPSGSQGLLEEMLAASSSKAVARRESAASGLGGLLEEEGAGAGAAQEEVLEPGRDSPPSWRPQPDGEASQTEDVDGTWGSSAARWSDQGPAQTSRRPSQGPPARSPSQDFSFIEDTEILDSAMYRSRANLGRKRGHRAPVIRPGGTLGLSEAADSDAHLFQDSTEPRASRVPSSDEEVVEEPQSRRTRMSLGTKGLKVNLFPGLSPSALKAKLRPRNRSAEEGELAESKSSQKESAVQRSKSCKVPGLGKPLTLPPKPEKSSGSEGSSPNWLQALKLKKKKV

Variants of: B1
Details: with tnks1_human TNKS

Variant | effect of a mutation on the interaction
G1513A | disrupting interaction strength
